{
  "source": "patent US20170137466A1",
  "about": "(UNIVERSITY OF SOUTHAMPTON, published 2017)",
  "molecular_target": "T1, HLA-Cw*0102",
  "T1 construct": "whole, on cells; MHC class I molecule on cells, as the partner that takes up the peptide; also called cell surface MHC class I of L721.174 cells",
  "assay": "MHC class I stabilisation on L721.174 cells with increasing peptide, flow cytometry",
  "source_text": "Cells were stained for cell surface of MHC class I and analysed by flow cytometry. The mean fluorescence intensity of cell surface MHC Class I was plotted against the peptide concentration.\n3×10⁵ cells were used per condition. Following washing in PBS the cells were stained for cell surface of MHC class I and analysed by flow cytometry. The mean fluorescence intensity of cell surface MHC Class I was plotted against the peptide concentration.",
  "data": [
    {"binder": "LNPSVAATL", "note": "[peptide LNPSVAATL (SEQ ID NO: 1)]", "values": [
      {"measurement": "binding result", "result": "binds"}
    ]}
  ]
}
